The results in this text go back to patent US12385058B2, “Herbicide tolerance protein, encoding gene thereof and use thereof” (Beijing Dabeinong Biotechnology Co., Ltd., priority 2018, dated 2025).

Data set [1] deals with soybean plants. As to the kind of experiment: Herbicide tolerance of transgenic soybean T1 plants (spraying, damage degree). The class given is in vivo. Conditions: sprayed with tribenuron-methyl 144 g ai/ha, eight-fold field concentration. As to the method:
The degree of damage caused by the herbicide was measured for each plant according to the leaf curl degree and the growth point damage degree 3 days after spraying (3 DAT), 7 days after spraying (7 DAT), 14 days after spraying (14 DAT) and 21 days after spraying (21 DAT): the case where the leaves are flat as untreated plants and the growth points are intact is defined as having a damage degree of 0%; the case where veins are locally browned, new leaves are malformed and plant growth is slow is defined as having a damage degree of 50%; and the case where veins are purple, until the whole plant is dead and the growth points are browned and dry is defined as having a damage degree of 100%. The soybean plants into which the ALT02M1-01 nucleotide sequence was introduced were of three strains in total (S1, S2 and S3), the soybean plants into which the ALT02M2-01 nucleotide sequence was introduced were of three strains in total (S4, S5 and S6), the soybean plants into which the ALT02M3-01 nucleotide sequence was introduced were of three strains in total (S7, S8 and S9), the soybean plants into which the ALT02-01 nucleotide sequence was introduced were of three strains in total (S10, S11 and S12), the control soybean plants were of two strains in total (S13 and S14), and the wild-type soybean plants were of one strain in total (CK1); and 10-15 plants were selected from each strain and tested.

Data set [2] is classed as biochemical. As to conditions: 0.2 μg enzyme, 0.2 mM substrate, pH 7.0, 30° C., 20 min. As to the method: (§1) Each reaction was timed beginning with the addition of reactive enzyme, and was terminated with 1 mL of dichloromethane. The organic phase after delamination was dehydrated with anhydrous sodium sulfate.
(§2) The above dehydrated reaction solution was blown dry with nitrogen and filtered by adding 1 mL of methanol, and 20 μL of the filtrate was subjected to liquid chromatography-mass spectrometry (LC-MS). High performance liquid chromatography (HPLC) conditions were as follows: mobile phase being methanol:water (80:20, V/V), Zorbax XDB-C18 chromatographic column (3.5 μm, 2.1×50 mm, Agilent, USA), column temperature being room temperature, UV detector, with a detection wavelength of 255 nm, a sample injection volume of 20 μL, and a flow rate of 0.25 mL/min. The primary ion mass spectrometry conditions were as follows: ion detection mode being multi-reactive ion detection; ion polarity being negative ion; ionization mode being electrospray ionization; a capillary voltage of 4000 volts; a dry gas temperature of 330° C., a flow rate of 10 L/min, an atomizing gas pressure of 35 psi, a collision voltage of 135 volts; and a mass scan range of 300-500 m/z. The secondary ion mass spectrometry conditions were as follows: a collision voltage of 90 volts; a mass scanning range of 30-400 m/z, and other conditions being the same as those of the primary ion mass spectrometry. It was identified by LC-MS that the metabolite of thifensulfuron-methyl was thiophene sulfonic acid, and the metabolite of metsulfuron-methyl, chlorimuron-ethyl, bensulfuron-methyl, sulfometuron-methyl or tribenuron-methyl was its corresponding sulfonic acid. The amount of the generated thiophene sulfonic acid (metabolite) was detected using high performance liquid chromatography (HPLC).

Data set [3] in a line: Degradation of sulfometuron-methyl by purified herbicide tolerant proteins (enzymatic activity, HPLC). In kind it is biochemical. Conditions: 0.2 μg enzyme, 0.2 mM substrate, pH 7.0, 30° C., 20 min. As to the method:
as §1, §2

B1: ALT02M1-01: nucleotide sequence SEQ ID NO: 25 encoding ALT02M1, based on soybean codon usage bias (nucleic acid)
DNA: ATGGAGACTGATAACGTGGAACTCGCCCAATCTAAGAGAAAGGTGGTGCTGGCTGAACAAGGGTCATTTTACATAGGGGGTAGGACTGTTACTGGTCCTGGCAAGTTTGATCCATCCAAACCTGTGATACCCTACAGTAACGAAGGAGCAACATTCTATATTAACCAAATGTATGTTAACTTCCAGGCCCCAGTGAGACCTAGGGGACTTCCATTGGTTTTCTGGCATGGAGGTGGCTTGACTGGTCACATCTGGGAGTCTACACCTGACGGCAGACCCGGGTTTCAAACCCTCTTCGTTCAGGATAGGCATACCGTGTACACTATTGACCAACCTGGGAGAGGAAGGGGTAACATCCCAACTTTTAACGGACCTTTCGGACAGTTGGAGGAAGAGAGTATTGTTAACACTGTGACAGCCAATTCTTCAAAGGAAGGTGCCTGGGTGAGAGATAGGCTTGGCCCTGCTCCCGGGCAATTTTTCGAGAACTCTCAGTTTCCTAGAGGCTATGAAGACAATTACTTTAAGGAGATGGGATTCAGCCCATCTATATCCAGTGATGAAATTGTTGACGCTGTTGTGAAACTCGTGACCCATATTGGTCCTTGTGTTCTGGTGACTCACTCAGCATCCGGCGTTCTTGGGATGAGAGTGGCTACACACGCAAAGAATGTTAGGGGAATTGTGGCCTATGAACCAGCTACCTCAATCTTCCCCAAGGGAAAAGTTCCAGAGATACCACCTCTCGCTGATAAGAAAAGCCAAATCTTTCCCCCATTCGAAATACAGGAGTCTTACTTTAAGAAACTTGCCAAGATTCCAATCCAATTTGTTTTCGGAGATAACATCCCCAAGAATCCAAAATCAGCATATTGGTTCCTGGACTGGTGGAGAGTGACAAGATACGCACATAGTCTCAGCCTGGAGGCCATAAACAAATTGGGGGGACAAGCTTCCCTTTTGGATCTTCCTACTGCAGGATTGAGAGGTAATACACACTTTCCCTTCACCGATAGGAACAATGTTCAGGTGGCTTCTCTCCTGTCAGACTTTCTGGGTAAACACGGTCTGGATCAAAATGAGAGCAAACTCGCCGCCGCCCTGGAATGA
modifications: the ALT02M1-01 nucleotide sequence encoding the amino acid sequence corresponding to the herbicide tolerant protein ALT02M1 and based on the soybean codon usage bias
Regarding B1, in data set [1], the “herbicide tolerance compared with soybean plants into which ALT02-01 was introduced” value is on record as “significantly increased tolerance to benzenesulfonic acid” and the “herbicide tolerance imparted to transgenic soybean plants” value is given as “impart transgenic soybean plants with the tolerance to benzenesulfonic acid”.

B2: ALT02M2-01: nucleotide sequence SEQ ID NO: 29 encoding ALT02M2, based on soybean codon usage bias (nucleic acid)
DNA: ATGGAGACTGATAACGTGGAACTCGCCCAATCTAAGAGAAAGGTGGTGCTGGCTGAACAAGGGTCATTTTACATAGGGGGTAGGACTGTTACTGGTCCTGGCAAGTTTGATCCATCCAAACCTGTGATACCCTACAGTAACGAAGGAGCAACATTCTATATTAACCAAATGTATGTTAACTTCCAGGCCCCAGTGAGACCTAGGGGACTTCCATTGGTTTTCTGGCATGGAGGTGGCTTGACTGGTCACATCTGGGAGTCTACACCTGACGGCAGACCCGGGTTTCAAACCCTCTTCGTTCAGGATAGGCATACCGTGTACACTATTGACCAACCTGGGAGAGGAAGGGGTAACATCCCAACTTTTAACGGACCTTTCGGACAGTTGGAGGAAGAGAGTATTGTTAACACTGTGACAGGAAATGTATCAAAGGAAGGTGCCTGGGTGAGAGATAGGCTTGGCCCTGCTCCCGGGCAATTTTTCGAGAACTCTCAGTTTCCTAGAGGCTATGAAGACAATTACTTTAAGGAGATGGGATTCAGCCCATCTATATCCAGTGATGAAATTGTTGACGCTGTTGTGAAACTCGTGACCCATATTGGTCCTTGTGTTCTGGTGACTCACTCAGCATCCGGCGTTCTTGGGATGAGAGTGGCTACACACGCAAAGAATGTTAGGGGAATTGTGGCCTATGAACCAGCTACCTCAATCTTCCCCAAGGGAAAAGTTCCAGAGATACCACCTCTCGCTGATAAGAAAAGCCAAATCTTTCCCCCATTCGAAATACAGGAGTCTTACTTTAAGAAACTTGCCAAGATTCCAATCCAATTTGTTTTCGGAGATAACATCCCCAAGAATCCAAAATCAGCATATTGGTTCCTGGACTGGTGGAGAGTGACAAGATACGCACATAGTCTCAGCCTGGAGGCCATAAACAAATTGGGGGGACAAGCTTCCCTTTTGGATCTTCCTACTGCAGGATTGAGAGGTAATACACACTTTCCCTTCACCGATAGGAACAATGTTCAGGTGGCTTCTCTCCTGTCAGACTTTCTGGGTAAACACGGTCTGGATCAAAATGAGAGCAAACTCGCCGCCGCCCTGGAATGA
modifications: the ALT02M2-01 nucleotide sequence encoding the amino acid sequence corresponding to the herbicide tolerant protein ALT02M2 and based on the soybean codon usage bias
B2: in data set [1], the “herbicide tolerance compared with soybean plants into which ALT02-01 was introduced” value is given as “significantly increased tolerance to benzenesulfonic acid” and the “herbicide tolerance imparted to transgenic soybean plants” value is reported as “impart transgenic soybean plants with the tolerance to benzenesulfonic acid”.

B3: ALT01: ALT01 protein (398 amino acids), SEQ ID NO: 1; unmutated herbicide tolerant protein (protein, listed as Methylophilus sp.)
chain: MGTALLTGTSAASPVLAAGTGAIGIATLPLSTATAPAGTAAVGLAGSLALVVLAGGGSPTIGGATVTGPGLPAPSLPVIPTSAGGATPTIAGMTVAPGAPVAPAGLPLVPTHGGGLTGHITGSTPAGAPGPGTLPVGAAHTVTTIAGPGAGAGAIPTPAGPPGGLGGGSIVATVTGASSLGGATVAAALGPAPGGPPGASGPPAGTGAATPLGMGPSPSISSAGIVAAVVLLVTHIGPCVLVTHSASGVLGMAVATHALAVAGIVATGPATSIPPLGLVPGIPPLAALLSGIPPPPGIGGSTPLLLALIPIGPVPGAAIPLAPLSATTPLATTAVTATAHSLSLGAIALLGGGASLLALPTAGLAGATHPPPTAAAAVGVASLLSAPLGLHGLAGAGS
Regarding B3, in data set [2], the “specific enzyme activity, bensulfuron-methyl” value was 1.7 µmol/min/mg; the “specific enzyme activity, chlorimuron-ethyl” value came to 2.7 µmol/min/mg; the “specific enzyme activity, metsulfuron-methyl” value came to 2.0 µmol/min/mg; the “specific enzyme activity, thifensulfuron-methyl” value was 27.4 µmol/min/mg. Further, the “specific enzyme activity, tribenuron-methyl” value in data set [2] came to 1.8 µmol/min/mg. In addition, the “specific enzyme activity, sulfometuron-methyl” value in data set [3] is 1.9 µmol/min/mg.
